# Laboratory results taken from the supplement of paper PMC7877785.
# ± gives the uncertainty stated by the source.
# Experiment: self-splicing fitness, log relative to wild type (ln ratio); higher = more splicing; Tetrahymena group I intron in knt gene, E. coli kanamycin selection, DiMSum; sequences stand for … in CUCUCU…GGAGGGAAAAGUUAUCAGGCAUGCACCUGGUAGCUAGUCUUUAAACCAAUAGAUUGCAUCGGUUUAAAAGGCAAGACCGUCAAAUUGCGGGAAAGGGGUCAACAGCCGUUCAGUACCAAGUCUCAGGGGAAACUUUGAGAUGGCCUUGCAAAGGGUAUGGUAAUAAGCUGACGGACAUGGUCCUAACCACGCAGCCAAGUCCUAAGUCAACAGAUCUUCUGUUGAUAUGGAUGCAGUUCACAGACUAAAUGUCGGUCGGGGAAGAUGUAUUCUUCUCAUAAGAUAUAGUCGGACCUCUCCUUAAUGGGAGCUAGCGGAUGAAGUGAUGCAACACUGGAGCCGCUGGGAACUAAUUUGUAUGCGAAAGUAUAUUGAUUAGUUUUGGAGUACUCGUGGUCG
# Outline: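 Six replicate transformations of E. coli BL21(DE3) with a pET-22b(+) library were grown overnight at 37°C or 30°C. The library randomised all eight P1ex-region intron nucleotides, the intron lying in the knt kanamycin-resistance gene, and plates were LB agar with or without 25 μg/mL kanamycin plus 100 μg/mL carbenicillin, 50 μM IPTG and 0.2% rhamnose. Pooled colonies were amplicon-sequenced on an Illumina HiSeq 2500, and fitness is the DiMSum error-weighted combination of wild-type-normalised replicate fold changes, kanamycin versus none.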
Sequence,self-splicing fitness (ln) (30 °C),self-splicing fitness (ln) (37 °C)
UAACAGCAAUAUUACGACGA,0.245 ± 0.069,0.319 ± 0.083
GGUGAGCAAUAUUACGUCUU,-0.609 ± 0.2,0.239 ± 0.25
GCCGAGCAAUAUUACGACAC,-1.4 ± 0.12,-0.338 ± 0.18
UGGAAGCAAUAUUACGCUCG,-0.853 ± 0.13,-0.272 ± 0.15
CUUUAGCAAUAUUACGGACC,,-1.83 ± 0.41
ACCAAGCAAUAUUACGCCUU,-2.87 ± 0.15,-1.97 ± 0.15
CUCUAGCAAUAUUACGUCGU,-3.66 ± 0.26,-4.15 ± 0.36
UGGGAGCAAUAUUACGACUG,-0.532 ± 0.39,-1.31 ± 0.47
CCGCAGCAAUAUUACGCAGU,-2.96 ± 0.18,-1.48 ± 0.17
GUAUAGCAAUAUUACGUGGA,-3.62 ± 0.28,-2.23 ± 0.18
AGGAAGCAAUAUUACGCAAA,-1.79 ± 0.14,-1.23 ± 0.14
CGUAAGCAAUAUUACGACUA,-2.29 ± 0.27,-1.96 ± 0.24
AUCCAGCAAUAUUACGAAUG,-1.94 ± 0.12,-1.36 ± 0.11
CGUAAGCAAUAUUACGGCCU,-3.28 ± 0.26,-1.54 ± 0.22
GACUAGCAAUAUUACGCUCU,-1.87 ± 0.12,-0.12 ± 0.14
CACAAGCAAUAUUACGAGUU,-2.91 ± 0.11,-1.13 ± 0.089
UCGCAGCAAUAUUACGUGCC,-2.66 ± 0.21,-2.7 ± 0.36
GGUCAGCAAUAUUACGCAUA,-0.703 ± 0.088,-0.214 ± 0.11
UGCUAGCAAUAUUACGCCCU,-0.725 ± 0.27,-0.338 ± 0.27

Sequence,self-splicing fitness (ln) (30 °C),self-splicing fitness (ln) (37 °C)
UAUGAGCAAUAUUACGAGGU,,-3.62 ± 0.46
UUUCAGCAAUAUUACGCCCG,-0.734 ± 0.22,0.939 ± 0.3
AAUAAGCAAUAUUACGGACA,-0.911 ± 0.13,0.0108 ± 0.14
CCUGAGCAAUAUUACGGUAU,-3.02 ± 0.16,-2.61 ± 0.21
AGGCAGCAAUAUUACGCAAU,-2.26 ± 0.14,-1.76 ± 0.094
AUACAGCAAUAUUACGGGAU,-0.898 ± 0.076,-0.747 ± 0.1
UGGCAGCAAUAUUACGCUAA,-0.652 ± 0.06,0.116 ± 0.069
GCCUAGCAAUAUUACGCAUG,-4.28 ± 0.36,-1.67 ± 0.15
UCCAAGCAAUAUUACGCGAU,-4.34 ± 0.21,-2.24 ± 0.17
UCGUAGCAAUAUUACGCGUG,-0.861 ± 0.1,-0.648 ± 0.096
GCAAAGCAAUAUUACGUUUG,-4.2 ± 0.17,-3.24 ± 0.15
AUCGAGCAAUAUUACGAGUG,-3.32 ± 0.3,-2.09 ± 0.32
CGACAGCAAUAUUACGACUC,-2.83 ± 0.18,-1.18 ± 0.15
UUUGAGCAAUAUUACGGCUC,-2.38 ± 0.42,-1.39 ± 0.46
CGCAAGCAAUAUUACGUAAG,-0.308 ± 0.067,0.113 ± 0.093
AUAUAGCAAUAUUACGGAUC,-1.55 ± 0.2,0.109 ± 0.26
UCAAAGCAAUAUUACGCGUG,-1.31 ± 0.057,-0.871 ± 0.066
ACGCAGCAAUAUUACGCUGG,-2.25 ± 0.12,-1.48 ± 0.14
CCCCAGCAAUAUUACGUAGG,-3.78 ± 0.12,-2.68 ± 0.15
